# Results from the RNAGym collection of RNA variant scans (doi:10.1093/molbev/msab373).
# B1: Azoarcus group I ribozyme (parent)
# chain: GUGCCUUGCGCCGGGAAACCACGCAAGGGAUGGUGUCAAAUUCGGCGAAACCUAAGCGCCCGCCCGGGCGUAUGGCAACGCCGAGCCAAGCUUCGGCGCCUGCGCCGAUGAAGGUGUAGAGACUAGACGGCACCCACCUAAGGCAAACGCUAUGGUGAAGGCAUAGUCCAGGGAGUGGCGAAAGUCACACAAACCGG
# Variants of: B1
# Assay: reverse-splicing fitness (ratio to wild type); higher = more active; in vitro selection; Mg2+ level not given
# Method in brief: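 An in vitro group I ribozyme library with randomized positions was T7-transcribed and gel-purified. In triplicate, 10 pmol RNA in EPPS pH 7.5 was reacted with 50 pmoles of a 30-nt RNA substrate for 1 h at 37 °C across several added MgCl2 levels (1–48 mM), then stopped with EDTA. Products were reverse transcribed from a substrate-complementary primer, PCR-amplified and sequenced (HiSeq 4000). Fitness is a variant's read proportion after selection over that before, normalised to wild type.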
row,Variant,reverse-splicing fitness
1,C82A A145G C150A C169A U176A,0.0195
2,C82A A145G C150A C169A U176C,0.0221
3,C82A A145C C150A C169U U176G,0.00553
4,C82A A145C C150A C169U U176C,0.00759
5,C82A A145C C150A C169U U176A,0.015
6,C82A A145C C169G,0.0105
7,C82A A145C C169A,0.00701
8,C82A A145C C169U,0.0141
9,C82A A120U U176G,0.0095
10,C82A A120U U176A,0.0313
11,C82A A120U U176C,0.0627
12,C82A A120U A145G C169U U176A,0.00354
13,C82A A120U A145G C169U U176G,0.00139
14,C82A A120U A145G C169U U176C,0.00364
15,C82A A120U A145G C169U,0.0064
16,C82A A120U A145G C169A,0.00287
17,C82A A120U A145G C169G,0.00528
18,C82A A120U C169G U176A,0.00261
19,C82A A120U C169G U176G,0.00153
20,C82A A120U C169G U176C,0.00323
21,C82A A145C C150U C169A U176G,0.00598

row,Variant,reverse-splicing fitness
1,C82A A145C C150U C169A U176C,0.00606
2,C82A A145C C150U C169A U176A,0.0106
3,C82A A145G C150G C169U,0.00998
4,C82A A145G C150G C169A,0.00856
5,C82A A145G C150G C169G,0.00856
6,C82A A120U C150A C169G U176A,0.00593
7,C82A A120U C150A C169G U176C,0.0032
8,C82A A120U C150A C169G U176G,0.00162
9,C82A A145C C150G C169A U176G,0.00669
10,C82A A145C C150G C169A U176A,0.00836
11,C82A A145C C150G C169A U176C,0.00619
12,C82A A145G C150G U176C,0.0513
13,C82A A145G C150G U176A,0.0291
14,C82A A145G C150G U176G,0.0113
15,C82A A145U C150A C169G U176C,0.0131
16,C82A A145U C150A C169G U176A,0.0139
17,C82A A145U C150A C169G U176G,0.0059
18,C82A A120U A145U C150U C169G U176G,0.00197
19,C82A A120U A145U C150U C169G U176C,0.00288
20,C82A A120U A145U C150U C169G U176A,0.00257
21,C82A A145U C150A C169U U176C,0.013

row,Variant,reverse-splicing fitness
1,C82A A145U C150A C169U U176G,0.00584
2,C82A A145U C150A C169U U176A,0.0139
3,C82A A120U A145G C150U C169U U176G,0.00226
4,C82A A120U A145G C150U C169U U176C,0.00493
5,C82A A120U A145G C150U C169U U176A,0.00414
6,C82A A120U A145G C150U C169U,0.00646
7,C82A A120U A145G C150U C169G,0.00684
8,C82A A145U C169A,0.0085
9,C82A A145C C150U,0.151
10,C82A A145C C150A,0.0312
11,C82A A145C C150G,0.0739
12,C82A A120U A145U C169G U176C,0.00254
13,C82A A120U A145U C169G U176A,0.00173
14,C82A A120U A145U C169G U176G,0.00116
15,C82A A120U C169U U176G,0.00156
16,C82A A120U C169U U176A,0.00359
17,C82A A120U C169U U176C,0.00453
18,C82A A145C C169U U176A,0.0128
19,C82A A145C C169U U176C,0.0108
20,C82A A145C C169U U176G,0.00467
21,C82A A145G C150G C169G U176C,0.0134

row,Variant,reverse-splicing fitness
1,C82A A145G C150G C169G U176G,0.00659
2,C82A A145G C150G C169G U176A,0.0112
3,C82A A120U C169G,0.00529
4,C82A A120U C169U,0.00613
5,C82A A120U C169A,0.00277
6,C82A A120U C150U C169A U176A,0.00392
7,C82A A120U C150U C169A U176G,0.00226
8,C82A A120U C150U C169A U176C,0.00357
9,C82A A145G C150G C169A U176G,0.00857
10,C82A A145G C150G C169A U176A,0.015
11,C82A A145G C150G C169A U176C,0.0124
12,C82A A145U C169A U176A,0.00948
13,C82A A145U C169A U176C,0.00899
14,C82A A145G C150A C169G U176C,0.0281
15,C82A A145G C150A C169G U176G,0.0061
16,C82A A145G C150A C169G U176A,0.0164
17,C82A A120U A145U C150G U176C,0.00823
18,C82A A120U A145U C150G U176A,0.00533
19,C82A A120U A145U C150G U176G,0.00318
20,C82A A145U,0.635
